Here are results for 4 sequences from patent US20160030477.

Common to all, as to test: cell_activity
For one series, the system named is ZFN 44271 (synthetic). To be noted: pair 44298:44271, K562, day 3 (36.6% day 10; GFP 0.2%).
A further series deals with ZFN 44298 (synthetic). To be noted: pair 44298:44271, K562, day 3 (36.6% day 10; GFP 0.2%).
The test system of another series is ZFN 50773 (synthetic). The conditions noted are these: pair 50773/49812, K562, AAV6 donor.
The next series deals with ZFN 49812 (synthetic). The conditions noted are these: pair 50773/49812, K562, AAV6 donor.

“GCCAGTGGCAGGCACCAGATCTCTGTAC (double strand) [IL2RG 44271 site]” returned an activity with ZFN 44271 (synthetic) of 42.8 % indels.

Regarding “TTACAATCATGTGGGCAGAATTGAAAAG (double strand) [IL2RG 44298 site]”, the activity in the series on ZFN 44298 (synthetic) stood at 42.8 % indels.

For the sequence “ATGATAAAGCTGCAAACCCAAAGAAACT (double strand) [RAG1 site 4 (50773)]”, the activity (% targeted integration) in the series on ZFN 50773 (synthetic) came to 5.

On to “CTTTTATGACCCATTTGGAAGAAATAAA (double strand) [RAG1 site 4 (55002/55005/49812)]”, for which the activity (% targeted integration) in the series on ZFN 49812 (synthetic) amounted to 5.
